Results from US12697350B2, “Methods and compositions for treating a premature termination codon-mediated disorder” (Tevard Biosciences, Inc., priority 2019, dated 2026).
“Also recorded” adds a separate entry of the source.

Tested on: mouse SCN1A with an Arg(R)-to-TGA PTC (R1407X) and 3×FLAG tag
Test: Rescue of full-length SCN1A protein expression, anti-FLAG Western blot, Flp-In-293 cells (FIGS. 37-39)
Type: cell-based, human
Text: FIG. 37A is a Western blot depicting rescue of full-length SCN1A protein expression by a suppressor tRNA. Flp-In-293 cells were transfected with an expression construct containing mouse SCN1A with an Arg(R)-to-TGA PTC (R1407X) and a 3×FLAG tag peptide (DYKDHD-G-DYKDHD-I-DYKDDDDK) at the C-terminus (SEQ ID NO: 899) (“SCN1a (R1407*)”) and either (i) co-transfected with an expression construct containing the ArgTCA suppressor tRNA #115 (SEQ ID NO: 18) (“Arg>TGA #115”), or (ii) treated with ataluren at the indicated concentration, (iii) treated with gentamicin at the indication concentration, or (iv) treated with G418 at the indicated concentration. “SCN1a (w.t.)” indicates cells transfected with an expression construct containing wild-type mouse SCN1A and a 3×FLAG tag peptide at the C-terminus (SEQ ID NO: 898). Protein was isolated at 24 hours post transfection and SCN1A was detected using a monoclonal anti-FLAG M2 antibody. Molecular weights based on protein molecular weight markers are indicated to the left of the gel. The intensity of bands corresponding to the size of full-length SCN1A protein was measured using ImageJ and all intensity values were normalized to wild-type SCN1A protein (“SCN1a (w.t.)” lane). Cells co-transfected with expression vectors containing mutant SCN1A and the ArgTCA suppressor tRNA expressed greater than 70% of the full-length SCN1A expressed by cells transfected with an expression construct containing wild-type SCN1A.
FIG. 38A is a Western blot depicting rescue of full-length SCN1A protein expression by suppressor tRNAs. Flp-In-293 cells were co-transfected with (i) an expression construct containing mouse SCN1A with an Arginine-to-TGA PTC (R1407X) and a 3×FLAG tag peptide (DYKDHD-G-DYKDHD-I-DYKDDDDK) at the C-terminus (SEQ ID NO: 899) (“SCN1a (R1407*)”) and (ii) either the #104 ArgTCA suppressor tRNA (SEQ ID NO: 6) (“Sup #104”), the #106 ArgTCA suppressor tRNA (SEQ ID NO: 8) (“Sup #106”), or the ArgTCA suppressor tRNA #115 (SEQ ID NO: 18) (“Sup #115”). “SCN1a (w.t.)” indicates cells transfected with an expression construct containing wild-type mouse SCN1A and a 3×FLAG tag peptide at the C-terminus (SEQ ID NO: 898). Protein was isolated at 24 hours post transfection and SCN1A was detected using a monoclonal anti-FLAG M2 antibody. Molecular weights based on protein molecular weight markers are indicated to the left of the gel. The intensity of bands corresponding to the size of full-length SCN1A protein was measured using ImageJ and all intensity values were normalized to wild-type SCN1A protein (“SCN1a (w.t.)” lane). Cells co-transfected with expression vectors containing mutant SCN1A and the ArgTCA suppressor tRNA expressed greater than 30% (Sup #104), greater than 60% (Sup #106), or greater than 70% (Sup #115) of the full-length SCN1A expressed by cells transfected with an expression construct containing wild-type SCN1A.
FIG. 39A is a Western blot depicting rescue of full-length SCN1A protein expression by a suppressor tRNA. Flp-In-293 cells were cultured in 6-well cell culture plates and co-transfected with (i) an expression construct containing mouse SCN1A with an Arginine-to-TGA PTC (R1407X) and a 3×FLAG tag peptide (DYKDHD-G-DYKDHD-I-DYKDDDDK) at the C-terminus (SEQ ID NO: 899) (“SCN1a (R1407*)”) and (ii) the ArgTCA suppressor tRNA #115 (SEQ ID NO: 18) (“Arg>TGA #115”) at the indicated concentrations. 1× indicates 400 ng of the ArgTCA suppressor tRNA construct per well, 0.3× indicates 133 ng of the ArgTCA suppressor tRNA construct per well, 0.1× indicates 40 ng of the ArgTCA suppressor tRNA construct per well, and 0.03× indicates 13 ng of the ArgTCA suppressor tRNA construct per well. “SCN1a (w.t.)” indicates cells transfected with an expression construct containing wild-type mouse SCN1A and a 3×FLAG tag peptide at the C-terminus (SEQ ID NO: 898). Protein was isolated at 24 hours post transfection and SCN1A was detected using a monoclonal anti-FLAG M2 antibody. […]

B1: tRNA-Arg-TCT-2-1-TCA-SUP_no intron (nucleic acid)
chain: GGCTCCGTGGCGCAATGGATAGCGCATTGGACTTCAAATTCAAAGGTTCCGGGTTCGAGTCCCGGCGGAGTCG
modifications: chemistry not fully specified
rescue of full-length SCN1A protein expression over dose range (13 to 400 ng suppressor tRNA construct per well, 6-well plate (FIG. 39)): able to rescue full-length SCN1A protein expression over a broad dose range
full-length SCN1A expressed, relative to cells transfected with wild-type SCN1A construct (Flp-In-293, 24 hours post transfection, Western blot band intensity (ImageJ) normalized to wild-type SCN1A): greater than 70%
rescue of full-length SCN1A protein expression (Flp-In-293, SCN1A R1407X-3×FLAG, Western blot, 24 hours post transfection): able to rescue full-length SCN1A protein expression; also recorded: rescued full-length SCN1A protein expression
